In patent publication US20240301068A1 (BEIJING HANMI PHARMACEUTICAL, published 2024):

Assays:
[1] = target: recombinant human PD-L1 (Sino Biological Inc.) (human, UniProt Q9NZQ7 19-239); assay: PD-L1/CD80 blocking assay, competitor CD80, format not described
[2] = target: T1, recombinant human CD80 (Sino Biological Inc.) (human, UniProt P33681 35-242); assay: ELISA, plate coated with 1 ug/mL recombinant human CD80 (printed B7-1), anti-human IgG-HRP, OD450; antibody concentration not shown
T1 sequence (looked up): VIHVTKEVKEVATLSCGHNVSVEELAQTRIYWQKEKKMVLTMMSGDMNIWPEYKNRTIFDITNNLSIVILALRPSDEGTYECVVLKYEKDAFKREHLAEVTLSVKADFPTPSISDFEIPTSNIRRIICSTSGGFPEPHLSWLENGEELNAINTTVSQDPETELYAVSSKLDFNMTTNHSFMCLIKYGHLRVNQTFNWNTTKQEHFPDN
Experimental: The plate was washed 5 times with PBST, and then blocked using PBST with 1% BSA, 300 μL/well, and incubated at 25° C. for 1 hour, and then washed 5 times with PBST. […] The horseradish peroxidase-labeled anti-human IgG antibody (Chemicon, catalog number AP309P) diluted 1:10000 in PBST with 1% BSA was then added, 100 μL per well, and incubated at 25° C. for 1 hour. The plate was washed 5 times with PBST. The colorimetric substrate TMB was added, 100 μL/well, and developed at room temperature for 10 minutes. 1M H₂SO₄ was added, 100 μL/well, to stop the development. The absorbance at 450 nm was read on a microplate reader.

recombinant human PD-L1 (Sino Biological Inc.), sequence (Q9NZQ7 19-239 limits assumed): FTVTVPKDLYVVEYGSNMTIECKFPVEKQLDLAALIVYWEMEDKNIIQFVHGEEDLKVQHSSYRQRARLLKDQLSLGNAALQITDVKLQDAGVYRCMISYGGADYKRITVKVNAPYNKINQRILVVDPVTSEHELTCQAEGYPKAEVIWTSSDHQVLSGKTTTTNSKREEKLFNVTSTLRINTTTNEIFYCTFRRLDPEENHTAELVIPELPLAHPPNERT

IC50 [1]: 0.762 nM
binding result [2]: no binding
B1: chimeric anti-human PD-L1 monoclonal antibody (antibody, human IgG1, kappa, V domains shown)
VH: EVQLQQSGAELVKPGASVKLSCTASGFNIEDTYIHWVMQRPEQGLEWIGRIDPANGNTKYDPKFQGKATITADTSSNTAYLQLSSLTSEDTAVYYCGRGLGAWFAYWGQGTLVTVSA
VL: DIVMTQSHKVMSTSVGDRVTITCKASQDVHTAVAWIHQKPGQSPKLLIYSASNRYTGVPDRFTGSGSGTDFTFTISSVQAEDLAVYYCQQHYITPLTFGAGTTLELKR
notes: expressed in ExpiCHO cells; also called Chimeric mAb; Chimeric antibody
